The Human Domainome abundance scans (Beltran et al. 2025)
± gives the uncertainty stated by the source.

B1: FERM and PDZ domain-containing protein 4, residues 75 to 154; numbered along this chain, Q14CM0 (parent)
chain: APRKVEMRRDPVLGFGFVAGSEKPVVVRSVTPGGPSEGKLIPGDQIVMINDEPVSAAPRERVIDLVRSCKESILLTVIQP

Variants of: B1
Test: abundance fitness (aPCA) (normalised: wild type 0, dead -1); higher = more abundant; growth selection in yeast, the domain comes from the species named
Settings: Homo sapiens

Row | Variant | abundance fitness
1 | P80C | -0.157 ± 0.11
2 | P80D | -0.28 ± 0.11
3 | P80F | -0.387 ± 0.13
4 | P80E | -0.164 ± 0.053
5 | P80R | -0.146 ± 0.04
6 | P80M | -0.181 ± 0.048
7 | P80S | -0.066 ± 0.028
8 | P80V | -0.23 ± 0.039
9 | P80N | -0.058 ± 0.085
10 | P80Q | 0 ± 0.05
11 | P80A | -0.086 ± 0.033
12 | P80G | -0.074 ± 0.036
13 | P80W | -0.403 ± 0.064
14 | P80Y | -0.356 ± 0.07
15 | P80T | -0.066 ± 0.033
16 | P80H | -0.165 ± 0.066
17 | P80L | -0.387 ± 0.042
18 | P80K | -0.138 ± 0.054
19 | P80I | -0.413 ± 0.11
20 | Q79R | 0.074 ± 0.018
21 | Q79F | -0.262 ± 0.034
22 | Q79G | 0.03 ± 0.019
23 | Q79S | 0.022 ± 0.022
24 | Q79A | 0.035 ± 0.022
25 | Q79D | -0.002 ± 0.028
26 | Q79T | 0.028 ± 0.024
27 | Q79I | -0.425 ± 0.039

Row | Variant | abundance fitness
28 | Q79N | -0.045 ± 0.033
29 | Q79E | -0.017 ± 0.024
30 | Q79K | -0.029 ± 0.027
31 | Q79P | -0.019 ± 0.03
32 | Q79W | -0.233 ± 0.023
33 | Q79L | -0.165 ± 0.022
34 | Q79H | -0.027 ± 0.032
35 | Q79V | -0.236 ± 0.021
36 | Q79C | 0.012 ± 0.028
37 | Q79Y | -0.09 ± 0.033
38 | I78S | 0.01 ± 0.022
39 | I78G | -0.079 ± 0.019
40 | I78K | 0.036 ± 0.027
41 | I78C | -0.029 ± 0.027
42 | I78Q | 0.025 ± 0.024
43 | I78N | -0.049 ± 0.033
44 | I78E | 0.044 ± 0.023
45 | I78P | -0.569 ± 0.032
46 | I78R | 0.005 ± 0.019
47 | I78T | 0.037 ± 0.024
48 | I78L | -0.024 ± 0.02
49 | I78F | -0.042 ± 0.031
50 | I78W | -0.063 ± 0.022
51 | I78Y | -0.053 ± 0.033
52 | I78H | -0.015 ± 0.036
53 | I78M | 0.022 ± 0.025
